In patent publication US20250115663A1 (CELLDEX THERAPEUTICS, published 2025):
Changes are numbered by the printed parent chain. Values belong to the binder of their own block, whether it stands above or below them.

Experiments:
Assay in all cases: ELISA, kappa-sCD40-Flag fusion captured on anti-Flag, anti-human IgG Fc-HRP
[1] = biological target: T1, kappa-sCD40-Flag fusion protein, full length ECD amino acid residues 1-173 (human, UniProt P25942 21-193)
T1 construct: also called full length sCD40; not shown: N-terminal human kappa light chain; C-terminal Flag tag

[2] = biological target: T2, kappa-sCD40-Flag fusion protein, fragment amino acids 36-130 (human, UniProt P25942 56-150)
T2 construct: not shown: N-terminal human kappa light chain; C-terminal Flag tag
T2 sequence (P25942 56-150): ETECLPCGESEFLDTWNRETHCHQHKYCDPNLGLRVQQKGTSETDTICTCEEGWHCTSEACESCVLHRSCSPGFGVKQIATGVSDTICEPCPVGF

[3] = biological target: T3, kappa-sCD40(1-94)-Flag point mutant F34L (human, UniProt P25942 21-114)
T3 construct: not shown: N-terminal human kappa light chain; C-terminal Flag tag
T3 chain: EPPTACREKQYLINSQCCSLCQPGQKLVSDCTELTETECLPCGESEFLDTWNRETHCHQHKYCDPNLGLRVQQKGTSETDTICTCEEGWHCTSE

[4] = biological target: T4, kappa-sCD40(1-94)-Flag point mutant A5T (human, UniProt P25942 21-114)
T4 construct: not shown: N-terminal human kappa light chain; C-terminal Flag tag
T4 chain: T3 chain with A5T, L34F

[5] = biological target: T5, kappa-sCD40(1-94)-Flag point mutant E1G (human, UniProt P25942 22-114)
T5 construct: not shown: N-terminal human kappa light chain; C-terminal Flag tag

[6] = biological target: T6, kappa-sCD40(1-94)-Flag point mutant P3S (human, UniProt P25942 21-114)
T6 construct: not shown: N-terminal human kappa light chain; C-terminal Flag tag
T6 chain: T3 chain with P3S, L34F

[7] = biological target: T7, kappa-sCD40(1-94)-Flag point mutant T35E (human, UniProt P25942 21-114)
T7 construct: not shown: N-terminal human kappa light chain; C-terminal Flag tag
T7 chain: T3 chain with L34F, T35E

[8] = biological target: T8, kappa-sCD40(1-94)-Flag point mutant T4V (human, UniProt P25942 21-114)
T8 construct: not shown: N-terminal human kappa light chain; C-terminal Flag tag
T8 chain: T3 chain with T4V, L34F

[9] = biological target: T9, kappa-sCD40(1-94)-Flag mutant fragment A (multiple mutations of residues 1-5) (human, UniProt P25942 26-114)
T9 construct: The text says only multiple mutations of residues 1-5 (human to mouse differences); that mutant A carries exactly these is inferred; also called A (1-5); not shown: N-terminal human kappa light chain; C-terminal Flag tag

[10] = biological target: T10, kappa-sCD40(1-94)-Flag mutant fragment D (multiple mutations of residues 33-36) (human, UniProt P25942 21-114)
T10 construct: The text says only multiple mutations of residues 33-36 (human to mouse differences); that mutant D carries exactly these is inferred; also called D (33-36); not shown: N-terminal human kappa light chain; C-terminal Flag tag
T10 chain: T3 chain with E33A, T35E, E36K

[11] = biological target: T11, kappa-sCD40-Flag fusion protein, fragment amino acids 1-94 (human, UniProt P25942 21-114)
T11 construct: also called sCD40aa 1-94; not shown: N-terminal human kappa light chain; C-terminal Flag tag

[12] = biological target: T12, kappa-sCD40(1-94)-Flag point mutant E36K (human, UniProt P25942 21-114)
T12 construct: not shown: N-terminal human kappa light chain; C-terminal Flag tag
T12 chain: T3 chain with L34F, E36K

[13] = biological target: T13, kappa-sCD40(1-94)-Flag point mutant E33A (human, UniProt P25942 21-114)
T13 construct: not shown: N-terminal human kappa light chain; C-terminal Flag tag
T13 chain: T3 chain with E33A, L34F

[14] = biological target: T14, kappa-sCD40-Flag fusion protein, fragment amino acids 84-173 (human, UniProt P25942 104-193)
T14 construct: not shown: N-terminal human kappa light chain; C-terminal Flag tag
T14 sequence (P25942 104-193): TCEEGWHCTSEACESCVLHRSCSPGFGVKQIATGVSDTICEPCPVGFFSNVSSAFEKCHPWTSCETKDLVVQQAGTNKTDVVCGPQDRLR

OD [1]: 2.36 OD 450-650 | OD [2]: 0.029 OD 450-650 | OD [3]: 1.84 OD 450-650 | OD [4]: 1.51 OD 450-650 | OD [5]: 2.01 OD 450-650 | OD [6]: 2.01 OD 450-650 | OD [7]: 2.1 OD 450-650 | OD [8]: 2.21 OD 450-650 | OD [9]: 0.25 OD 450-650 | OD [10]: 0.233 OD 450-650 | OD [11]: 2.15 OD 450-650 | OD [12]: 1.69 OD 450-650 | OD [13]: 1.7 OD 450-650 | OD [14]: 0.024 OD 450-650
B1: anti-CD40 human monoclonal antibody 3C3 (antibody, human IgG2, kappa, V domains shown)
VH: QVQLVESGGGVVQPGRSLRLSCAGSGFIFSRYGMYWVRQAPGKGLEWVAVIWYDGSYKYYADSVKGRFTISRDNSKNTLYLQMNSLRAEDTAVYYCARESPWYYFDYWGQGTLVTVSS
VL: DIQMTQSPSSLSASVGDRVTITCRASQGISNYLAWYQQKPGKVPKLLIYAASTLQSGVPSRFSGSGSGTDFTLTISSLQPEDVATYYCQKYKSAPFTFGPGTKVDIKR
notes: Human IgG2, C-terminal lysine removed; also called anti-CD40 mAb 3C3; CD40 antibody 3C3

OD [1]: 2.21 OD 450-650 | OD [2]: 0.048 OD 450-650 | OD [3]: 1.19 OD 450-650 | OD [4]: 2.2 OD 450-650 | OD [5]: 2.08 OD 450-650 | OD [6]: 2.19 OD 450-650 | OD [7]: 2.13 OD 450-650 | OD [8]: 2.21 OD 450-650 | OD [9]: 2.14 OD 450-650 | OD [10]: 0.042 OD 450-650 | OD [11]: 2.17 OD 450-650 | OD [12]: 1.93 OD 450-650 | OD [13]: 0.074 OD 450-650 | OD [14]: 0.038 OD 450-650
B2: anti-CD40 human monoclonal antibody 3G5 (antibody, human IgG2, V domains shown)
VH: QVQLVESGGGVVQPGKSLRLSCAASGFTFSSNGIHWVRQAPGKGLEWVAVIWSDGSNKFYADSVKGRFTISRDNSKNTLYLQMNSLRAEDTAVYYCARASGSGSYYNFFDYWGQGTLVTVSS
VL: EIVMTQSPATLSVSPGERATLSCRASQSVRSNLAWYQQKPGQAPRLLIYGASTRATGIPARFSGSGSGTEFTLTINSLQSEDFAVYYCQQHNKWITFGQGTRLEIK
notes: Human IgG2
